Test results reported in the DeepSol protein solubility set.

Assay: soluble on expression in E. coli; label from the status in PepcDB or PDB records

**Q.** For “MGSDKIHHHHHHMEIKKFIENYREAFGEYAELPIVFWYSDILENETGKVNGCFFKSMSKVRGGNTISLNAETIGCGGGKFYTGFTDMPEHVPTFVSLKERYKQTPEMVKSFIEQLGVPRAEKEYLHFARIDKVETFDHLEGILFLANPDILSGLTTWAFFDNNKEDTVISTFGSGCSSVVTQTILENRKGGYRTFIGFFDPSVRPYFEADILSYTIPMSRFKVMYETMRSSCLFDTHAWGKIRERNHNSYKE”, which “soluble on expression in E. coli” value is on record?
**A.** not soluble

**Q.** For “MGSDKIHHHHHHMASLTANIQTQEERKRSLPAQLVVSLVIAMSLWSKDSMRDVLKNLIDGLSEAWLKVGKYWRVACKSAITQARQRLGARVMCKLFHQLVKPMATQETLGAFLQELRIVVIDGSCFDVPDSDENARVFGRPGSRPGTKAAFPKVRLVILVEAGTHIIFDALMWPYRIGERVRALRLLRSVTPGMLLMWDRGLHSYAMVQATVTKGCDYLGRIPANIKFIAEKPLEDGSYLSWIYPSGKLRKKASQPILVRIIEYTIEHPDNPTEQLTYRLITSLLNIEKFPAELLAREYHQRWEVENTIDELKIHLLGRKTHVRSQKPREVVQEVYAWLLGHWTVRLLMFQAATSAGVAPLRLSFTGTLRVIRRAVPKFQRLNSQDLPLFLSG”, which “soluble on expression in E. coli” value is on record?
**A.** not soluble

**Q.** For “MGSDKIHHHHHHMNIQSIEPTPSPNTMKLTLDQTLPQGKSNNYTLKNKEEAPPFIQKLFEIEGVKGVYHVADFLAIERNAKVDWKVILPKVRAVFGDETGDGPQKEKPEVQEGYGEVQVFLQLFKGIPMQIKLSNGEEEVREGLPERFANAAFAAQQPDDNVVLERKWVEQGVRYGELADVAKDVAEEVSAAFSQERLDRLVNIAKGLVDKTQEQTEERFRKVTLADMEQDDWRDRYAALDKMDPTEEDLPVLEKALQDEKASIRRLATVYLGMIEKPVVLPLLEKALKDPSVTVRRTAGDCMSDIGDPAAIPAMIEALKDKNKLVRWRAAMFLYEVGDETAIDALRLAEDDPEFEVAMQVKMALERIVGGEEAKGSVWKQMTEEMAKGKNE”, which “soluble on expression in E. coli” value is on record?
**A.** not soluble

**Q.** Which “soluble on expression in E. coli” value does the source give for “MKIIDCRNMACPAPVVTTKRALEEAGGETVQVLVDPGAPRENVIRFAENRGFAVSEVEADNGFALTITSPGSAPVEPVRTVAGKGGKTVMLVASDRLGDGPEELGRLLMKNFIITLLDLAELPDRMLFVNTGVLLTTEGSEVLEALQSLGNRGVEVLSCGVCLDFFHRKEKLVAGSVTNMFTIAESLLGAGSVVRLLEHHHHHH” here?
**A.** soluble

**Q.** With “MTEVVLHIYDVTNSGSEKTNNTIVQINRFFKDGIGLGGIFHSAIQVYGNDEWSYGYCELGTGVFSCPSGKNPMYTYREKIVLGKTDCTIFMVNQMLRELSREWPGHTYDLLSKNCNHFCDVLCDRLGVPKIPGWVNRFANAGDTALEVAGNTAMRMKQAKTELVSASKVAYRFLSNVTSNVTNGSNGSPQRPGTLNNSDSGNLRLQGSWLKGLLNTAKPSTSTEIGNKDEDANHAVTNQKKQSRDSDVLLFQ” as the sequence, how does the “soluble on expression in E. coli” value read?
**A.** not soluble

**Q.** For “GPGSMAETTIGFRCQDFVLVAAAGLNAFYYIKITDTEDKITELDSHKVVACAGENGPRTHFVEYVKCNMALKKMREHGRMISTHATASFMRNTLAGALRSRDGLYPVNCLLAGFDVPASAEDDVATGAHLYYLDYLGTLQEVPYGCHGYGAPFVTAMLDRMWRPNLTAQEGVELMQKCCDEVKKRVVVSNNTFICKAVTKDGVERVQSVS”, which “soluble on expression in E. coli” value is on record?
**A.** soluble

**Q.** With “MAHHHHHHMKQECNVCYFNLPDPESTLGPYDNELNYFTWGPGFEYEPEPQRKPLSIEESFENSEESEESVADIQQLEEKVDESDVRIYFNEKSSGGKISIDNASYNARKLGLAPSSIDEKKIKELYGDNLTYEQYLEYLSICVHDKDNVEELIKMFAHFDNNCTGYLTKSQMKNILTTWGDALTDQEAIDALNAFSSEDNIDYKLFCEDILQ” as the sequence, how does the “soluble on expression in E. coli” value read?
**A.** soluble

**Q.** Which “soluble on expression in E. coli” value does the source give for “GQDRSEATLIKRFKGEGVRYKAKLIGIDEVSAARGDKLCQDSMMKLKGVVAGARSKGEHKQKIFLTISFGGIKIFDEKTGALQHHHAVHEISYIAKDITDHRAFGYVCGKEGNHRFVAIKTAQAAEPVILDLRDLFQLIYELKQREELEKKA” here?
**A.** soluble

**Q.** With “MKRGEELPPLEIEVTRTLIVAGAIASRDYQDVHHDAESARRRGSPDIFMNILTTNGLVGRYITDHFGPGAVLRKVAIRLGAPNYPGDTMVLTGTVVEVEGDTATVKVIGANGIGTHVRGTVTVTVPPGSASLEHHHHHH” as the sequence, how does the “soluble on expression in E. coli” value read?
**A.** not soluble

**Q.** With “MSSRKGKASAHISYEDENDDLIDEINTFHNKDRKVEKGAIHKRKTFNRPEEVLNVEAEASDSSEDDGSDFDDDDVNDITDNKWGKKRKDFYGTGFVDKDWGGMREEEMEDAQLEEEDALTRQKQIDKSTAAIADLFDDDDEDEEEKEETVEVETVLEFNEENARTKNKKIVKTLEQFEARKRIFDLVVKPLENVIKQIPKCALRSQLVYVAQTYASYLMNTAFLLNLRAKQFSNEKLDDPLVDIHPVVESLKRLEKKITECEDFLHSNSDHLDELKKWAESEPENMEELISKVGDVQLTKKNFGAIMNNNLSTITSSDNTSIHPHFTPMDADEKRKASDKVAKNREYAERRGKKKAKTSKTKNRRKVHAIEKRVKSQIGNVRREMQKYSGETSGIRASTIKSTKLIA” as the sequence, how does the “soluble on expression in E. coli” value read?
**A.** not soluble

**Q.** With “ATPALRFVAVGDWGGVPNAPFHTAREMANAKEIARTVQILGADFILSLGDNFYFTGVQDINDKRFQETFEDVFSDRSLRKVPWYVLAGNHDHLGNVSAQIAYSKISKRWNFPSPFYRLHFKIPQTNVSVAIFMLDTVTLCGNSDDFLSQQPERPRDVKLARTQLSWLKKQLAAAREDYVLVAGHYPVWSIAEHGPTHCLVKQLRPLLATYGVTAYLCGHDHNLQYLQDENGVGYVLSGAGNFMDPSKRHQRKVPNGYLRFHYGTEDSLGGFAYVEISSKEMTVTYIEASGKSLFKTRLPRRARP” as the sequence, how does the “soluble on expression in E. coli” value read?
**A.** soluble

**Q.** Which “soluble on expression in E. coli” value does the source give for “QVQLQQSGSELMKPGASVQISCKATGYTFSDYWIEWVKQRPGHGLEWIGDILCGTGRTRYNEKLKAMATFTADTSSNTAFMQLSSLTSEDSAVYYCARSASYGDYADYWGHGTTLTVSSAKTTPPSVYPLAPGCGDTTGSSVTLGCLVKGYFPESVTVTWNSGSLSSSVHTFPALLQSGLYTMSSSVTVPSSTWPSQTVTCSVAHPASSTTVDKKLEPS” here?
**A.** soluble

**Q.** Which “soluble on expression in E. coli” value does the source give for “MGSDKIHHHHHHMNKNNQYVLSLACQDAPGIVSEVSTFLFNNGANIVEAEQFNDEDSSKFFMRVSVEIPVAGVNDFNSAFGKVVEKYNAEWWFRPRTDRKKVVIMVSKFDHCLGDLLYRHRLGELDMEVVGIISNHPREALSVSLVGDIPFHYLPVTPATKAAQESQIKNIVTQSQADLIVLARYMQILSDDLSAFLSGRCINIHHSFLPGFKGAKPYHQAHTRGVKLIGATAHFVTADLDEGPIIAQDVEHVSHRDSAEDLVRKGRDIERRVLSRAVLLFLEDRLIVNGERTVVFAD” here?
**A.** not soluble

**Q.** For “MGSDKIHHHHHHMTLSITSNFDAGAIDVVSCERADAIRLRVRGDNRSEFAQWFYFRLTGARGERCVMTFENANDCAYPAGWRDYRAVASYDRVNWFRVPTSYDGQMLTIDHTPEFDSIHYAYFEPYSEERHSEFLGAVQQMPQASVVELGRTVEGRPMSLVVLGTPDEAGAAKKKVWIIARQHPGESMAEWFIEGLVKRLVGWGDWSGDPVARKLYDHATFYIVPNMNPDGSVHGNLRTNAAGANLNREWMEPDAERSPEVLVVRDAIHAIGCDLFFDIHGDEDLPYVFAAGSEMLPGFTEQQRVEQSAFIDSFKRASPDFQDEHGYPPGKYREDAFKLASKYIGHRFGCLSLTLEMPFKDNANLPDEHIGWNGARSASLGAAMLGAILEHVRAFA”, which “soluble on expression in E. coli” value is on record?
**A.** not soluble

**Q.** Which “soluble on expression in E. coli” value does the source give for “MSLKDQVQLVKRRDSIRYEIVSIQDRLSFEKGFFAVIRACQLLSQKNDGIILVGVAGPSGAGKTVFTEKILNFLPSVAVISMDNYNDSSRIVDGNFDDPRLTDYDTLLKNLEDLKEGKQVEVPIYDFKSSSRVGYRTLDVPPSRIVIIEGIYALSEKLRPMLDLRVSVTGGVHFDLVKRVLRDIQRAGQQPEEIIHQISETVYPMYKAFIEPDLQTAQIKIINKFNPFTGFQSPTYILKSRKEGHHHHHH” here?
**A.** not soluble

**Q.** For “MYYYVNEHEKALADFDKVIELNPKEDKTYYWKGLVYEYLKQYESSLVYLNKAIQLNDKNYKYYELRSLVYKQLREYDKAYSDVNVAIKLNQNNGILYSLRGLLNKYLNKYNDAIIDYNKSIELMPEFIAPYKSLLSIYLQTQNYEAGLEVANKAINIEQSWILYSTRGYLFLMLQSYNEAISDSNRAIKLNSGFADSYLTRGKAYLALKEYKKAIEDFDRAIELDSDNIDKVKQEAYEALAEMGEK”, which “soluble on expression in E. coli” value is on record?
**A.** not soluble

**Q.** Which “soluble on expression in E. coli” value does the source give for “MGSDKIHHHHHHMRTYRLVIACPDRVGIVAKVSNFLALYNGWINEASHHSDEQSGWFFMRHEIRAESLPFGIEAFREAFAPIAEEFSMTWRITDSAQKKRVVLMASRESHCLADLLHRWHTDELDCEIPCVISNHNDLRSMVEWHGIPFFHVPVDPKDKAPAFAEVSRLVQEHAADVVVLARYMQILPPQLCRDYAEKVINIHHSFLPSFVGAKPYHQAALRGVKLIGATCHYVTEELDAGPIIEQDVVRVSHADSIEDMVRFGRDVEKMVLARGLRYHLEDRVLVHGNKTVVFD” here?
**A.** not soluble

**Q.** With “MGSDKIHHHHHHMIHVGTCGFCEKQDKYFQDFSTVEIQQTFYKILQESTLKKWREKAPEGFVFSIKAFQGVTHPPNSPTWRRSNVKPSKNVGLLRPTNEVIHYWKITLNEAKILNARFILIQLPRSFKESEESFSNAERFFSIIDRGEFEIAVELRGWSERGIKKFVREFDVIDVVDPMVRVPLHGGGVNYYRLHGKYENGRIIYSYKYSDEELLKIRERVLSFHVEESYVYFNNSNMCEDAQRFKQLIMKF” as the sequence, how does the “soluble on expression in E. coli” value read?
**A.** not soluble

**Q.** With “MAHHHHHHMNLRSLVPSDKQLTEEQQSHIQDLQDEIDEIWSRRGDYKIDDKAWEHMPLFMETITEEDMQKNADCAALASIAYDEVPPEDIAESRKQHGNRAIQLALNPEQVNKENLARAAAHCYTEGLNAKCKDPILNSQLYANRSLAQYIIQNYGHGLEDAQRAIILNPDYSKAYYRAARCAERVKKYDLAIDLLSKGRCTNPPPEGIALEEFEELERVCREGMKKFQKKEKEDSIRTRVRAAETSSLMRALTSYGIRLSPTPEVSSEQMGVYGQHQPYFDAVGLLHVPILFMYDEYQQTDFMQDVTCDVSTAELLDEIMPFPWDDRGRYRHMNEVVVFFKIDDGVKMAEYYEVDLSWPLMEVFRSESYKMPMLLPVLHVVCRSSELLQHWKPQKPR” as the sequence, how does the “soluble on expression in E. coli” value read?
**A.** not soluble

**Q.** For “MAAISFPLLQLPNFALNKTLKLMCVVPHLYLSIISKKAKRCITAVNEKPLYVHINKASSISLRLTTKSFQNFEFIITPGQSDLEIRKYITTRPLFNSYLSTNQCVLGVTAKQWIELIAQVFIQDKGVLLKLQNSNKFNIKEIQYYTRELNIVRLKIESSELQDTQLSKMFPKVEELTVTRDKIPSSILSRNFKKLRFDDIKVSLDNILISNCSSFLIFLQTLPDKDLNRFMKLWIKESNPNLKTFEVCFPDYEQTGLDGTILFKGIRCIDSIKHGEVTRKKFKRHDGTTALVSVFASTSFHFCMTVVG”, which “soluble on expression in E. coli” value is on record?
**A.** not soluble

**Q.** Which “soluble on expression in E. coli” value does the source give for “MYVCHFENCGKAFKKHNQLKVHQFSHTQQLPYECPHEGCDKRFSLPSRLKRHEKVHAGYPCKKDDSCSFVGKTWTLYLKHVAECHQD” here?
**A.** soluble

**Q.** Which “soluble on expression in E. coli” value does the source give for “MGSDKIHHHHHHMDVVDELIKLHEEHVSGLLRLCGQAGWPDYGEQELKLLVQQGRFFGYQNVSGDIISCIGLFLFGRLTSIGLVIVDKEYQRLGLGRRMVNACITQTDENTAIRLCATKEGLPLYEKAGFHTAGSVRKYSCHSFQPYTKKLDAELTSFREQDFHDLTAADLAAFGGDRSNLLQQLISASCECIIARNQDGQLIGYGLSVQTPANLKFGPIIAPSSDVAAQIITRLAAGKQGPMRIDIPSEHTSLHDSLIEMGFHKDDEPPILFYQKKAPIQNGHLYALISQALG” here?
**A.** not soluble
